{"source": "paper PMC13618070", "about": "(RNA (New York, N.Y.), 2025)", "binders": {"B1": {"name": "RDE-4 truncation R3 (dsRBM3 only, begins with M244) (domain or fragment, C. elegans, UniProt G5EBF5 244-385, looked up)", "chain": "MVDVIENLEEAEHLLEIQDQASKIKDKHSALIDILSDKKRFSDYSMDFNVLSVSTMGIHQVLLEISFRRLVSPDPDDLEMGAEHTQTEEIMKATAEKEKLRKKNMPDSGPLVFAGHGSSAEEAKQCACKSAIIHFNTYDFTD"}, "B2": {"name": "RDE-4 dsRBM1 and dsRBM2 point mutant R1^AAR2^AAR3 (K89A/K90A/K217A/K218A) (natural protein, C. elegans, UniProt G5EBF5 1-385, looked up)", "chain": "MDLTKLTFESVFGGSDVPMKPSRSEDNKTPRNRTDLEMFLKKTPLMVLEEAAKAVYQKTPTWGTVELPEGFEMTLILNEITVKGQATSAAAARQKAAVEYLRKVVEKGKHEIFFIPGTTKEEALSNIDQISDKAEELKRSTSDAVQDNDNDDSIPTSAEFPPGISPTENWVGKLQEKSQKSKLQAPIYEDSKNERTERFLVICTMCNQKTRGIRSKAADAKNLAAWLMWKALEDGIESLESYDMVDVIENLEEAEHLLEIQDQASKIKDKHSALIDILSDKKRFSDYSMDFNVLSVSTMGIHQVLLEISFRRLVSPDPDDLEMGAEHTQTEEIMKATAEKEKLRKKNMPDSGPLVFAGHGSSAEEAKQCACKSAIIHFNTYDFTD"}, "B3": {"name": "RDE-4 dsRBM2 point mutant R1R2^AAR3 (K217A/K218A) (natural protein, C. elegans, UniProt G5EBF5 1-385, looked up)", "chain": "MDLTKLTFESVFGGSDVPMKPSRSEDNKTPRNRTDLEMFLKKTPLMVLEEAAKAVYQKTPTWGTVELPEGFEMTLILNEITVKGQATSKKAARQKAAVEYLRKVVEKGKHEIFFIPGTTKEEALSNIDQISDKAEELKRSTSDAVQDNDNDDSIPTSAEFPPGISPTENWVGKLQEKSQKSKLQAPIYEDSKNERTERFLVICTMCNQKTRGIRSKAADAKNLAAWLMWKALEDGIESLESYDMVDVIENLEEAEHLLEIQDQASKIKDKHSALIDILSDKKRFSDYSMDFNVLSVSTMGIHQVLLEISFRRLVSPDPDDLEMGAEHTQTEEIMKATAEKEKLRKKNMPDSGPLVFAGHGSSAEEAKQCACKSAIIHFNTYDFTD"}, "B4": {"name": "RDE-4 dsRBM1 point mutant R1^AAR2R3 (K89A/K90A) (natural protein, C. elegans, UniProt G5EBF5 1-385, looked up)", "chain": "MDLTKLTFESVFGGSDVPMKPSRSEDNKTPRNRTDLEMFLKKTPLMVLEEAAKAVYQKTPTWGTVELPEGFEMTLILNEITVKGQATSAAAARQKAAVEYLRKVVEKGKHEIFFIPGTTKEEALSNIDQISDKAEELKRSTSDAVQDNDNDDSIPTSAEFPPGISPTENWVGKLQEKSQKSKLQAPIYEDSKNERTERFLVICTMCNQKTRGIRSKKKDAKNLAAWLMWKALEDGIESLESYDMVDVIENLEEAEHLLEIQDQASKIKDKHSALIDILSDKKRFSDYSMDFNVLSVSTMGIHQVLLEISFRRLVSPDPDDLEMGAEHTQTEEIMKATAEKEKLRKKNMPDSGPLVFAGHGSSAEEAKQCACKSAIIHFNTYDFTD"}}, "data": [{"biological_target": "DCR-1•DRH-1 complex (DCR-1•(OSF)DRH-1) (C. elegans, UniProt P34529 1-1910; G5EDI8 1-1037)", "assay": "pull-down", "units": {"percent recovery normalized to WT RDE-4": "%"}, "values": [{"binder": "B1", "percent recovery normalized to WT RDE-4": "~72"}, {"binder": "B2", "percent recovery normalized to WT RDE-4": "> 100"}, {"binder": "B3", "percent recovery normalized to WT RDE-4": "> 100"}, {"binder": "B4", "percent recovery normalized to WT RDE-4": "> 100"}]}]}
